Source: PMC3603003 (Molecular Plant, 2012)

How the values were obtained:
SEC = biological target: the molecule itself; test: SEC
[1] = biological target: rabbit muscle actin, polymerized (F-actin) (rabbit, UniProt P68135 1-377); test: co-sedimentation

B1: NtWLIM2–His (recombinant tobacco LIM protein WLIM2, 6xHis-tagged) (natural protein, Nicotiana tabacum (tobacco), UniProt P93356 1-189, looked up)
chain: MSFIGTQQKCKACEKTVYPVELLSADGVNYHKSCFKCSHCKGTLKLSNFSSMEGVLYCKPHFEQLFKESGNFNKNFQSPAKSAEKLTPELTRSPSKAAGMFSGTQEKCATCGKTAYPLEKVTVENQSYHKTCFKCSHGGCSLSPSNYAALNGILYCKPHFSQLFKEKGSYNHLIKSASMKRPAATVPDS
**Q.** B1 was tested. Which “stoichiometry N” value (SEC) did it give?
**A.** 2

**Q.** What about the Kd [1] of the same binder?
**A.** 1830 nM
